The test deals with TATA-binding protein (Saccharomyces cerevisiae (strain ATCC 204508 / S288c) (Baker's yeast)) (UniProt P13393).

In the case of “purified yeast NC2 (DRAP1/Dr1) with epitope-tagged (FLAG) NC2α/DRAP1 subunit”, the amount required for 50% inhibition of in vitro transcription by RNA polymerase II holoenzyme was 0.5 pmol.

The values are drawn from patent US5763593.
